According to patent US20030007991A1, “Devices including protein matrix materials and methods of making and using thereof” (priority 1998, published 2003):

Tested on: xanthine oxidase
Assay: In vitro enzyme activity of xanthine oxidase in a protein matrix array piece (Sigma Enzymatic Assay of Superoxide Dismutase protocol, spectrophotometer)
Type: biochemical
Conditions: absorbance measured at 550 mm, cytochrome C and other reactants, no enzyme activity produces 0.00000 change

xanthine oxidase
enzyme activity of xanthine oxidase (change in absorbance): 0.0250 delta absorbance/min
